The record followed here is the supplement of paper PMC9112550, “Optimization of the antimicrobial peptide Bac7 by deep mutational scanning” (BMC Biology, 2022).
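Note: peptides expressed intracellularly from a pBAD plasmid library in pooled LB shake-flask culture, induced with 0.3% L-arabinose, DNA abundance read by NGS, three biological replicates, DESeq2 with apeglm shrinkage.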

The subject of the data set is Escherichia coli TOP10. Briefly: shrunken log2 fold change of peptide-encoding DNA abundance (4.5 h post-induction vs induction); higher = less antimicrobial activity (less host growth inhibition). The following applies: time post-induction: 4.5 h; library: site-saturation at positions 5, 18, 19, 20.
Regarding RRIRTRPPRLPRPRPRPRWMPRP, the “shrunken log2 fold change” value turned out to be 0.0454.

For RRIRQRPPRLPRPRPRPVPFPRP, the “shrunken log2 fold change” value is -0.374.

On to RRIRIRPPRLPRPRPRPNAIPRP, for which the “shrunken log2 fold change” value was -0.204.

Turning to RRIRVRPPRLPRPRPRPSGKPRP, the “shrunken log2 fold change” value was 0.0575.

Consider RRIRLRPPRLPRPRPRPSGQPRP, for which the “shrunken log2 fold change” value was -0.0893.

On to RRIRDRPPRLPRPRPRPFNIPRP, for which the “shrunken log2 fold change” value worked out at 0.0125.

For the sequence RRIRGRPPRLPRPRPRPTTSPRP, the “shrunken log2 fold change” value turned out to be 1.11.

Consider RRIRNRPPRLPRPRPRPMVAPRP, for which the “shrunken log2 fold change” value amounted to 0.0624.

Turning to RRIRHRPPRLPRPRPRPKANPRP, the “shrunken log2 fold change” value amounted to 0.174.

Take RRIRSRPPRLPRPRPRPEEIPRP: the “shrunken log2 fold change” value is -0.00908.

On to RRIRMRPPRLPRPRPRPVMWPRP, for which the “shrunken log2 fold change” value stood at 0.624.

Turning to RRIRMRPPRLPRPRPRPQIVPRP, the “shrunken log2 fold change” value was -0.163.

For the sequence RRIRFRPPRLPRPRPRPRDDPRP, the “shrunken log2 fold change” value was 0.133.

With RRIRDRPPRLPRPRPRPWELPRP, the “shrunken log2 fold change” value stood at 0.18.

As for RRIRNRPPRLPRPRPRPNDTPRP, the “shrunken log2 fold change” value was -0.236.

RRIRFRPPRLPRPRPRPRCFPRP: the “shrunken log2 fold change” value was -0.183.

RRIRTRPPRLPRPRPRPMAIPRP: the “shrunken log2 fold change” value is -0.00284.

In the case of RRIRIRPPRLPRPRPRPSFLPRP, the “shrunken log2 fold change” value is -1.11.

On to RRIRTRPPRLPRPRPRPFKTPRP, for which the “shrunken log2 fold change” value stood at 0.0238.

RRIRCRPPRLPRPRPRPMVAPRP: the “shrunken log2 fold change” value was 0.0319.

Regarding RRIRPRPPRLPRPRPRPHCSPRP, the “shrunken log2 fold change” value is -0.0583.

In the case of RRIRQRPPRLPRPRPRPCVMPRP, the “shrunken log2 fold change” value was -0.149.

For RRIRFRPPRLPRPRPRPHCVPRP, the “shrunken log2 fold change” value was -0.216.

Take RRIRSRPPRLPRPRPRPYNMPRP: the “shrunken log2 fold change” value was -0.817.

RRIRIRPPRLPRPRPRPGMMPRP: the “shrunken log2 fold change” value is -0.453.

RRIRHRPPRLPRPRPRPKSFPRP: the “shrunken log2 fold change” value is -0.0233.

Regarding RRIRSRPPRLPRPRPRPYNYPRP, the “shrunken log2 fold change” value was -0.494.

RRIRARPPRLPRPRPRPPSPPRP: the “shrunken log2 fold change” value came out at 0.669.

For the sequence RRIRGRPPRLPRPRPRPMFEPRP, the “shrunken log2 fold change” value stood at 0.688.

RRIRWRPPRLPRPRPRPHQFPRP: the “shrunken log2 fold change” value was -0.843.

As for RRIRRRPPRLPRPRPRPNQYPRP, the “shrunken log2 fold change” value was -0.506.

For RRIRDRPPRLPRPRPRPQSIPRP, the “shrunken log2 fold change” value was determined as 0.00839.

With RRIRIRPPRLPRPRPRPFPAPRP, the “shrunken log2 fold change” value was -0.299.

Take RRIRTRPPRLPRPRPRPINAPRP: the “shrunken log2 fold change” value is -0.175.

Take RRIRMRPPRLPRPRPRPMNIPRP: the “shrunken log2 fold change” value was -0.198.

For RRIRERPPRLPRPRPRPQNLPRP, the “shrunken log2 fold change” value was -0.375.

RRIRARPPRLPRPRPRPLYAPRP: the “shrunken log2 fold change” value came out at 0.0495.

As to RRIRKRPPRLPRPRPRPEVLPRP, the “shrunken log2 fold change” value was 1.57.

With RRIRYRPPRLPRPRPRPFWSPRP, the “shrunken log2 fold change” value is -0.363.

For RRIRTRPPRLPRPRPRPEQDPRP, the “shrunken log2 fold change” value was determined as 0.0235.

As for RRIRTRPPRLPRPRPRPPYNPRP, the “shrunken log2 fold change” value is -0.252.

For the sequence RRIRVRPPRLPRPRPRPDEFPRP, the “shrunken log2 fold change” value is -0.0422.

In the case of RRIRSRPPRLPRPRPRPPIMPRP, the “shrunken log2 fold change” value is -0.0485.

For RRIRGRPPRLPRPRPRPHQWPRP, the “shrunken log2 fold change” value turned out to be 0.134.

Regarding RRIRLRPPRLPRPRPRPYERPRP, the “shrunken log2 fold change” value was -0.148.

With RRIRNRPPRLPRPRPRPLPVPRP, the “shrunken log2 fold change” value amounted to 0.437.

RRIRLRPPRLPRPRPRPLYEPRP: the “shrunken log2 fold change” value was -0.488.

For RRIRFRPPRLPRPRPRPEMYPRP, the “shrunken log2 fold change” value was -0.00146.

Take RRIRIRPPRLPRPRPRPKEEPRP: the “shrunken log2 fold change” value was found to be 0.0133.

With RRIRNRPPRLPRPRPRPSRPPRP, the “shrunken log2 fold change” value was 0.112.

On to RRIRFRPPRLPRPRPRPRNKPRP, for which the “shrunken log2 fold change” value is -0.174.

For the sequence RRIRPRPPRLPRPRPRPENEPRP, the “shrunken log2 fold change” value came to 0.0949.

Regarding RRIRDRPPRLPRPRPRPLWSPRP, the “shrunken log2 fold change” value was -0.0446.

For RRIRMRPPRLPRPRPRPKWWPRP, the “shrunken log2 fold change” value is 0.755.

RRIRHRPPRLPRPRPRPHTVPRP: the “shrunken log2 fold change” value is -0.606.

As to RRIRPRPPRLPRPRPRPDAIPRP, the “shrunken log2 fold change” value was 0.148.

In the case of RRIRDRPPRLPRPRPRPPPRPRP, the “shrunken log2 fold change” value was found to be 1.1.

In the case of RRIRDRPPRLPRPRPRPQGGPRP, the “shrunken log2 fold change” value was -0.17.

As for RRIRARPPRLPRPRPRPAAAPRP, the “shrunken log2 fold change” value worked out at 1.11.

As for RRIRTRPPRLPRPRPRPDTHPRP, the “shrunken log2 fold change” value was -0.424.

For RRIRQRPPRLPRPRPRPGEYPRP, the “shrunken log2 fold change” value is -0.0469.

As to RRIRWRPPRLPRPRPRPCYEPRP, the “shrunken log2 fold change” value was -0.136.

Take RRIRFRPPRLPRPRPRPYPTPRP: the “shrunken log2 fold change” value was -0.324.

As for RRIRQRPPRLPRPRPRPNPSPRP, the “shrunken log2 fold change” value was -0.042.

With RRIRNRPPRLPRPRPRPKYHPRP, the “shrunken log2 fold change” value was -0.442.

For RRIRARPPRLPRPRPRPRMNPRP, the “shrunken log2 fold change” value stood at 0.183.

RRIRERPPRLPRPRPRPFFSPRP: the “shrunken log2 fold change” value was -0.358.

For RRIRYRPPRLPRPRPRPFFMPRP, the “shrunken log2 fold change” value is -0.71.

Regarding RRIRRRPPRLPRPRPRPIRIPRP, the “shrunken log2 fold change” value was -0.106.

With RRIRRRPPRLPRPRPRPSGIPRP, the “shrunken log2 fold change” value was -0.0479.

With RRIRFRPPRLPRPRPRPFPNPRP, the “shrunken log2 fold change” value was -0.0354.

With RRIRRRPPRLPRPRPRPWRSPRP, the “shrunken log2 fold change” value stood at 0.181.

As for RRIRNRPPRLPRPRPRPYNGPRP, the “shrunken log2 fold change” value is 0.0167.

For the sequence RRIRVRPPRLPRPRPRPYPWPRP, the “shrunken log2 fold change” value was -0.361.

Turning to RRIRMRPPRLPRPRPRPNHGPRP, the “shrunken log2 fold change” value was -0.00135.

For RRIRLRPPRLPRPRPRPEHYPRP, the “shrunken log2 fold change” value is -0.00385.

For the sequence RRIRARPPRLPRPRPRPVNNPRP, the “shrunken log2 fold change” value was -0.223.

In the case of RRIRMRPPRLPRPRPRPFGSPRP, the “shrunken log2 fold change” value was 0.00388.

With RRIRNRPPRLPRPRPRPSFKPRP, the “shrunken log2 fold change” value was -0.25.

Take RRIRLRPPRLPRPRPRPYVPPRP: the “shrunken log2 fold change” value was -0.383.

For the sequence RRIRVRPPRLPRPRPRPTTSPRP, the “shrunken log2 fold change” value turned out to be 0.097.

Regarding RRIRQRPPRLPRPRPRPAFQPRP, the “shrunken log2 fold change” value is 0.0837.

Regarding RRIRPRPPRLPRPRPRPDEHPRP, the “shrunken log2 fold change” value is -0.205.

RRIRNRPPRLPRPRPRPHNMPRP: the “shrunken log2 fold change” value was -1.06.

Consider RRIRMRPPRLPRPRPRPCTLPRP, for which the “shrunken log2 fold change” value is -0.192.

For RRIRCRPPRLPRPRPRPDYQPRP, the “shrunken log2 fold change” value is -0.447.

For the sequence RRIRLRPPRLPRPRPRPYNCPRP, the “shrunken log2 fold change” value is -0.053.

For RRIRARPPRLPRPRPRPDFSPRP, the “shrunken log2 fold change” value was determined as 0.000254.

Regarding RRIRWRPPRLPRPRPRPYYFPRP, the “shrunken log2 fold change” value was -0.692.

On to RRIRIRPPRLPRPRPRPDDRPRP, for which the “shrunken log2 fold change” value was found to be 0.0115.

RRIRPRPPRLPRPRPRPHWYPRP: the “shrunken log2 fold change” value is -0.165.

As for RRIRARPPRLPRPRPRPAEDPRP, the “shrunken log2 fold change” value was 1.19.

With RRIRWRPPRLPRPRPRPEVNPRP, the “shrunken log2 fold change” value is 0.321.

For the sequence RRIRERPPRLPRPRPRPIATPRP, the “shrunken log2 fold change” value amounted to 0.221.

RRIRMRPPRLPRPRPRPIWDPRP: the “shrunken log2 fold change” value came out at 0.0663.

On to RRIRERPPRLPRPRPRPCAGPRP, for which the “shrunken log2 fold change” value is -0.0261.

Turning to RRIRSRPPRLPRPRPRPDVQPRP, the “shrunken log2 fold change” value was -0.147.

For the sequence RRIRMRPPRLPRPRPRPCVWPRP, the “shrunken log2 fold change” value amounted to 0.245.

Turning to RRIRKRPPRLPRPRPRPVCMPRP, the “shrunken log2 fold change” value was 0.0492.

RRIRYRPPRLPRPRPRPDCVPRP: the “shrunken log2 fold change” value was -0.3.

Regarding RRIRMRPPRLPRPRPRPQEFPRP, the “shrunken log2 fold change” value turned out to be 0.284.

For the sequence RRIRRRPPRLPRPRPRPIRVPRP, the “shrunken log2 fold change” value was determined as 0.244.

For RRIRVRPPRLPRPRPRPQNGPRP, the “shrunken log2 fold change” value is -0.356.

On to RRIRWRPPRLPRPRPRPIVFPRP, for which the “shrunken log2 fold change” value is -0.125.

As for RRIRSRPPRLPRPRPRPYPRPRP, the “shrunken log2 fold change” value was -0.45.

As for RRIRHRPPRLPRPRPRPFYMPRP, the “shrunken log2 fold change” value was -0.292.

With RRIRHRPPRLPRPRPRPFQPPRP, the “shrunken log2 fold change” value was -0.135.

For RRIRCRPPRLPRPRPRPPGIPRP, the “shrunken log2 fold change” value was 3.39.

As to RRIRWRPPRLPRPRPRPFDFPRP, the “shrunken log2 fold change” value is -0.159.

On to RRIRARPPRLPRPRPRPADIPRP, for which the “shrunken log2 fold change” value is -0.245.

As for RRIRPRPPRLPRPRPRPSELPRP, the “shrunken log2 fold change” value came out at 0.0666.

For the sequence RRIRTRPPRLPRPRPRPAEGPRP, the “shrunken log2 fold change” value turned out to be 0.164.

As for RRIRNRPPRLPRPRPRPHCGPRP, the “shrunken log2 fold change” value was -0.225.

Consider RRIRWRPPRLPRPRPRPYNAPRP, for which the “shrunken log2 fold change” value is -0.307.

Take RRIRKRPPRLPRPRPRPYVTPRP: the “shrunken log2 fold change” value was -0.401.

Consider RRIRSRPPRLPRPRPRPKQCPRP, for which the “shrunken log2 fold change” value amounted to 0.14.

Take RRIRVRPPRLPRPRPRPTHQPRP: the “shrunken log2 fold change” value came to 0.209.

On to RRIRVRPPRLPRPRPRPWEEPRP, for which the “shrunken log2 fold change” value was -0.317.

For the sequence RRIRCRPPRLPRPRPRPIQRPRP, the “shrunken log2 fold change” value turned out to be 0.0673.

Turning to RRIRVRPPRLPRPRPRPVSHPRP, the “shrunken log2 fold change” value amounted to 0.173.

Take RRIRFRPPRLPRPRPRPCSDPRP: the “shrunken log2 fold change” value is -0.119.

With RRIRQRPPRLPRPRPRPINGPRP, the “shrunken log2 fold change” value was -0.000925.

Regarding RRIRKRPPRLPRPRPRPFHRPRP, the “shrunken log2 fold change” value was -0.0303.

As to RRIRPRPPRLPRPRPRPVWIPRP, the “shrunken log2 fold change” value is 0.0152.

Consider RRIRDRPPRLPRPRPRPMEPPRP, for which the “shrunken log2 fold change” value came to 0.127.
